Source: patent publication US20240327493A1 (GEORGE MASON UNIVERSITY, priority 2023, published 2024)
“Also recorded” adds a separate entry of the source. Blank lines part the entries; values can stand above or below the molecule they belong to. Where a SMILES comes first, the peptide text is derived from it. Bridges are numbered along the chain shown (N, C = ends). Where no end group is shown, it is not given here.

Key:
PD-1/PD-L1 complex = target: T1, PD-1/PD-L1 complex (Homo sapiens, UniProt Q15116); test: AlphaScreen (PD-1/PD-L1 AlphaLISA binding kit), PD-1/PD-L1 complex formation; conditions: for Blocking of PD-1/PD-L1 complex formation: AlphaScreen, result in words; for Residual Activity: AlphaScreen PD-1/PD-L1 complex formation
T1 construct: purchased PerkinElmer AL356HV
T1 sequence (Q15116 25-170 limits assumed, one chain of several): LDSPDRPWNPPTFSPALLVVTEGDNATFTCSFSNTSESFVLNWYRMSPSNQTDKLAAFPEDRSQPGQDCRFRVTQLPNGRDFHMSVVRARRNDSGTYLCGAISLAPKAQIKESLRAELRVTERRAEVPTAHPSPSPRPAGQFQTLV
Description: Peptides were screened using the PerkinElmer PD-1/PD-L1 (human) AlphaLISA Binding Kit (Waltham, MA, USA, Cat. No. AL356HV) according to the manufacturer's instructions. […] Briefly, peptides were resuspended in assay buffer with 4% dimethyl sulfoxide (DMSO) to make 4× stock solutions of 400 μM. […] Lastly, the 4× mixture of anti-His Acceptor beads and streptavidin Donor beads were prepared in the dark. […] The plate was incubated in the dark for 90 minutes at room temperature and luminescence was measured using a Tecan Spark multimode plate reader (Männedorf, Switzerland). For data analysis, a control with beads alone was subtracted from each well for background correction. Data analysis was conducted using GraphPad Prism version 9 (La Jolla, CA, USA).

[1] = system: human PBMCs co-cultured with OVCAR8 cells; test: Co-culture of OVCAR8 cells and stimulated human PBMCs, 1:10 OVCAR8:PBMC ratio; type: cell-based; conditions: for Immunosuppressive effect (reduction in TNFα/cytokines) compared with controls rPD-L1 and MN_Null: 1:10 OVCAR8:PBMC co-culture, FIG. 10D
Description: For this model, PBMCs and cancer cells were both stimulated prior to co-culture to promote expression of PD-1 and PD-L1, respectively.
OVCAR8 cells, generously provided by the Gottesman Lab (National Institutes of Health, Bethesda, MD, USA), and MDA-MB-231 cells (American Type Culture Collection, Rockville, MD, USA) were cultured in Gibco RPMI 1640 media (ThermoFisher Scientific, Cat. No. 11-875-093) supplemented with 10% Gibco fetal bovine serum (ThermoFisher Scientific, Cat. No. 10437028), and 1% penicillin/streptomycin (10,000 U/mL pen, 10 mg/mL strcp) from MilliporeSigma (Burlington, MA, USA, Cat. No. P4333). Cells were cultured at 37° C. and 5% CO2. Passage number was kept below 3 for co-culture assay. Human peripheral blood mononuclear cells were purchased frozen from […] PBMCs were thawed according to manufacturer's instructions one day before co-culture and cultured in the same media and conditions as cancer cell lines.
The next day, cells were stimulated with 100 ng/mL IFNγ and two vials of human PBMCs were thawed. On Day 3, concentrations of PBMCs and OVCAR8 cells (harvested from a control well) were measured using the QuadCount Automated Cell Counter. The concentration of PBMCs required for a 1:10 OVCAR8:PBMC ratio was calculated from the OVCAR8 concentration. PBMCs were plated on a separate 24-well plate (1 mL/well) and stimulated with 5 μg/mL of anti-CD3 and 5 μg/mL of anti-CD28 for 30 minutes before drug treatment. […] After 30 minutes, media was removed from OVCAR8 wells without treatment, and replaced with 1 mL of treated PBMCs. After 24 hours, the supernatants were collected from each well, and centrifuged at 10,000×g for 5 minutes to remove any remaining cells.
Briefly, samples from co-culture experiments with excess OVCAR8 ratios were diluted 1:10 in assay buffer, and samples from co-culture experiments with excess PBMC ratios were diluted 1:5 in assay buffer. Next, 10 μL of the diluted samples were mixed with 10 μL of an IL-2 antibody-oligonucleotide conjugate mixture and added to a 96-well working plate. Samples with excess OVCAR8 ratios were allowed to incubate overnight at 4° C. Samples with excess PBMCs were allowed to incubate for 1 hour at room temperature. Next, 80 μL of qPCR reaction mixture containing master mix and DNA ligase was added to each well. The plate was centrifuged at 2,500×g for 2 minutes. Samples were then added in triplicate (20 μL/well) to a 96-well PCR plate (ThermoFisher Scientific). PCR was run according to manufacturer's instructions using the QuantStudio 7 Pro Real-Time PCR System equipped with a 96-well, 0.2 mL block from ThermoFisher Scientific.
Remaining samples from experiments with excess PBMC ratios were analyzed using TNFα (Cat. No. 430204) ELISA MAX Deluxe Sets (BioLegend, San Diego, CA, USA) according to manufacturer's instructions. Briefly, 96-well Nunc™ MaxiSorp™ ELISA Plates (BioLegend, Cat. No. 423501) were coated with capture antibodies for TNFα and incubated overnight at 4° C. The next day, the plate was washed 4× with 1×PBS+0.05% Tween-20 (PBS-T). To block non-specific binding, 200 μL of assay dilutant buffer was added to each well and the plate was incubated at room temperature for 1 hour on a shaker. The plate was washed as before, and 100 μL of the samples or standards were added to each well in triplicate and incubated at room temperature for 2 hours on a shaker. The plate was washed 4× and 100 μL of detection antibody for TNFα was added to each well, and the plate was incubated at room temperature for 1 hour on a shaker. The plate was washed 4× and 100 μL of Avidin-HRP was added to each well, and the plate was incubated at room temperature for 30 minutes on a shaker.

[2] = Human serum was diluted 1:4 in Gibco RPMI 1640 media; conditions: room temperature (serum incubated at 37° C. for 15 minutes prior to time course); for fragment found: up to 6 hours
[3] = human serum diluted 1:4 in RPMI, ESI-MS, 0, 6, 24, 48 hours
Description: Angiotensin I was spiked in and used for normalization.
Human serum was diluted 1:4 in Gibco RPMI 1640 media (ThermoFisher Scientific, Waltham, MA, USA, Cat. No. 11-875-093) for a total of 1 mL and incubated at 37° C. for 15 minutes prior to time course. Next, 1 μL of the peptide stock was added to warmed serum for a final concentration of […] in the master mix. The rest of the time course was performed at room temperature. For each time point, aliquots of 100 μL were removed from the master mix and added to 200 μL of 3% trifluoroacetic acid. Samples were incubated on ice for 15 minutes before centrifugation at 16,000×g for 2.5 minutes. Supernatants were transferred to a clean tube and prepared for desalting via C18 column by adding 100 μL of sample buffer (20% acetonitrile, 2% trifluoroacetic acid) to supernatants before storage at—20° C. overnight. Samples were then processed through Pierce C18 spin columns (ThermoFisher Scientific, Cat. No. 89870) according to the manufacturer's instructions. […]
For ESI-MS analysis, serum stability samples were run on an Orbitrap Exploris 480 (ThermoFisher Scientific). […] ThermoFisher's Xcalibur 4.0 Data System was used for peptide quantification. […] The samples were batch reprocessed for quantification via peak area. Peptide abundances were normalized based on Angiotensin I abundance and quantified relative to initial abundance.

[4] = target: T2, biotinylated PD-1 of the PerkinElmer PD-1/PD-L1 (human) AlphaLISA Binding Kit (human, UniProt Q15116 25-167, limits assumed, biotinylated (site not stated)); test: AlphaScreen (PerkinElmer PD-1/PD-L1 human AlphaLISA binding kit): peptide titrated against biotinylated PD-1 and His-tagged PD-L1; readout percent activity (PD-1/PD-L1 complex formation)
T2 construct: Bought kit reagent
T2 sequence (Q15116 25-167 limits assumed): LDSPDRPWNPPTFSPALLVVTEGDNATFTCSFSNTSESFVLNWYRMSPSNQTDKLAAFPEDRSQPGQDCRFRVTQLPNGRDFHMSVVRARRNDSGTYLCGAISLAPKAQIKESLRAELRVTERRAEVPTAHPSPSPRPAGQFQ
Description: (§1) Briefly, peptides were resuspended in assay buffer with 4% dimethyl sulfoxide (DMSO) to make 4× stock solutions of 400 μM. […] Lastly, the 4× mixture of anti-His Acceptor beads and streptavidin Donor beads were prepared in the dark. Peptides were then added in duplicates of 10 μL to a white 96-well ½-AreaPlate (PerkinElmer, Cat. No. 6005560) at 7 different concentrations from 1 nM to 100 μM. […] The plate was incubated in the dark for 90 minutes at room temperature and luminescence was measured using a Tecan Spark multimode plate reader (Männedorf, Switzerland). For data analysis, a control with beads alone was subtracted from each well for background correction. Data analysis was conducted using GraphPad Prism version 9 (La Jolla, CA, USA).

[5] = target: T2, biotinylated PD-1 of the PerkinElmer …; test: AlphaScreen (PerkinElmer PD-1/PD-L1 human AlphaLISA binding kit): peptide titrated against biotinylated PD-1 and His-tagged PD-L1; readout percent PD-1/PD-L1 binding
Description: as §1

Molecule: YRCMISNGGADYKRITV (Ac-YRCMISNGGADYKRITV-NH2) [SEQ ID NO. 3]
Blocking of PD-1/PD-L1 complex formation (PD-1/PD-L1 complex): mutation of Y7 is tolerated

Molecule: YRCMISYGGADEKRITV [SEQ ID NO. 14]
Immunosuppressive effect (reduction in TNFα/cytokines) compared with controls rPD-L1 and MN_Null ([1]; listed as MN-Null): did not show a significant reduction
Immunosuppressive effect (reduction in TNFα/cytokines) compared with controls rPD-L1 and MN_Null ([1]; listed as MN_Null): less immunosuppressive activity as compared to MN1.4; also recorded: little immunosuppressive effect

Molecule: CC[C@H](C)[C@@H]1NC(=O)[C@H](CCSC)NC(=O)[C@H](C)NC(=O)[C@H](CCCNC(=N)N)NC(=O)[C@H](Cc2ccc(O)cc2)NC(=O)[C@@H](N)CSSC[C@@H](C(=O)O)NC(=O)[C@H](C(C)C)NC(=O)[C@H]([C@@H](C)O)NC(=O)[C@H]([C@@H](C)CC)NC(=O)[C@H](CCCNC(=N)N)NC(=O)[C@H](CCCCN)NC(=O)[C@H](Cc2ccc(O)cc2)NC(=O)[C@H](CC(=O)O)NC(=O)[C@H](C)NC(=O)CNC(=O)CNC(=O)[C@H](Cc2ccc(O)cc2)NC(=O)[C@H](CO)NC1=O [SEQ ID NO. 4] (H-CYRAMISYGGADYKRITVC-OH; disulfide 1-19)
IC50 (PD-1/PD-L1 complex): < 10 µM
Degradation in serum [3]: present at very low levels after 48 hours

Molecule: YRCMISYGGADYKRITV
fragment found [2]: cysteinylated peptide, major, 15 minutes; also recorded: oxidized MN 1.1, minor, time 0

Molecule: Pembrolizumab [reference compound]
TNFα levels ([1]; 1:10 OVCAR8:PBMC, 24 hours, ELISA, vs untreated co-culture control, FIG. 10C): did not have this effect
IL-2 levels ([1]; 1:10 OVCAR8:PBMC, 24 hours, vs untreated co-culture control, FIG. 10B): did not have this effect

Molecule: CRALIAYKGADYKRIC (disulfide 1-16) [MN4.2]
IC50 (read off the curve) [4]: ~10 µM

B1: MN 2.1 (peptide)
peptide: Ac-YRCMISNGGADYKRITV-NH2
modifications: not fully specified
notes: the text speaks of Y7Q for the computation
IC50 [5]: 17.4 µM

More lines, main results first:

Residual Activity (PD-1/PD-L1 complex): 62.87%
Molecule: CRALIAYKGADYKRIC (disulfide 1-16) [SEQ ID NO. 8]

fragment found [2]: oxidized MN1.4
not cleaved ([2]; up to 48 hours): not significantly degraded at 48 hours
Molecule: NH3-CRAMISYGGADYK-(N-Me-Arg)-IC—COOH

Residual Activity (PD-1/PD-L1 complex): 82.74%
Blocking of PD-1/PD-L1 complex formation (PD-1/PD-L1 complex): lost activity
Molecule: CRAXISYGGADYKXIC (norleucine at position 4; SITE 4 Nle; DISULFID 1..16 Intra chain disulphide formation; SITE 14 N-methyl arginine) [SEQ ID NO. 6]
Blocking of PD-1/PD-L1 complex formation (PD-1/PD-L1 complex; listed as MN1.5): abolished the ability of MN1.1 to block PD-1/PD-L1 complex formation

Residual Activity (PD-1/PD-L1 complex): 45.77%
Molecule: CRAMISYKGADYKRIC (disulfide 1-16) [SEQ ID NO. 7]

IC50 (read off the curve) [4]: ~10 µM
Molecule: CRAMISYKGADYKRIC (disulfide 1-16) [MN 3.2]
